The target of one series is T1, MBP-AGO10 NC (127-336) (A. thaliana, UniProt Q9XGW1 127-336).
T1 construct: source: E. coli BL21 (DE3), purified (amylose resin); not shown: MBP, N-terminal, kept
T1 sequence (looked up): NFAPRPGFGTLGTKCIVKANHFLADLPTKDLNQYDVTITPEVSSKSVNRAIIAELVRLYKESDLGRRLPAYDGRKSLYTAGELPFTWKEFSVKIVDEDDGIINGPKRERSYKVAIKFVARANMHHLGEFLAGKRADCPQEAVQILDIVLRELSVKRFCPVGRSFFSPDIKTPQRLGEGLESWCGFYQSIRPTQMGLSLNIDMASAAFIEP
Nature of the series: pull-down; His-SUMO baits and MBP-fusion preys purified from E. coli; prey preabsorbed on Ni-NTA resin, then incubated with bait 1 hr at room temperature and captured on Ni-NTA; 50 mM Tris pH 7.5, 150 mM NaCl, 0.2% glycerol, 0.6% Triton X-100, 0.5 mM β-mercaptoethanol; six washes with 300 mM NaCl; blot with anti-MBP. The settings on record: both partners purified.

Another series deals with T2, MBP-AGO1 (A. thaliana, UniProt O04379 1-1048).
T2 construct: ARGONAUTE 1 (AGO1), A. thaliana; purified as described in Zhang et al., 2006b; source: E. coli, purified (amylose resin); not shown: MBP, N-terminal, kept
T2 sequence (looked up): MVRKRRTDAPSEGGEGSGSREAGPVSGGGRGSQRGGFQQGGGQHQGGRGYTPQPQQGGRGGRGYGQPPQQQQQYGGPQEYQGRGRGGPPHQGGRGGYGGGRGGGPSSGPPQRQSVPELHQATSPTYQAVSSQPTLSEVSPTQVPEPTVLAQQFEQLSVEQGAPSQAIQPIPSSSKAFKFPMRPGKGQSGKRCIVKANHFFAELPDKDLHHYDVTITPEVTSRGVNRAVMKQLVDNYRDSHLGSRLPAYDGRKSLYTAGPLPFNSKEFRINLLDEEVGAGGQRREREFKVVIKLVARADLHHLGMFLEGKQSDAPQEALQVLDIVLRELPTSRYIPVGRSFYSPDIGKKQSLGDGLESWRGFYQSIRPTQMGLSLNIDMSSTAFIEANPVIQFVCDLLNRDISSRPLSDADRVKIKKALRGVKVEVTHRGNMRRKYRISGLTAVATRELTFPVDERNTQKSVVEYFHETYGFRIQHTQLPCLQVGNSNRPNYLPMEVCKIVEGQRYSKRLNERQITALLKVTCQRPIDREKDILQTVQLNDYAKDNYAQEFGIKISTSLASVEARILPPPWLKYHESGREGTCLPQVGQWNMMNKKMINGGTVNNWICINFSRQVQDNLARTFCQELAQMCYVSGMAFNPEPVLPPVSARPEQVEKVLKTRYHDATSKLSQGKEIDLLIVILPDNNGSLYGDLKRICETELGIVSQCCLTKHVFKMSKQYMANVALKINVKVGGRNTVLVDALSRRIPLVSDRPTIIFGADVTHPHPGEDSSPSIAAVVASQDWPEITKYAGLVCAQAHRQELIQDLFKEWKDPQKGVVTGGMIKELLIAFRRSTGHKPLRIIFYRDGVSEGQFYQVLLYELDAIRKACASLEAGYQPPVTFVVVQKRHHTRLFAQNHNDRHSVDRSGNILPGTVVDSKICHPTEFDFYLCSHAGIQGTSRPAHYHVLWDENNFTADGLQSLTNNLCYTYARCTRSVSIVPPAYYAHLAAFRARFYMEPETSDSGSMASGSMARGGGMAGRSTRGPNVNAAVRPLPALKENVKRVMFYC
Described as above. The settings on record: both partners purified.

Another series addresses T3, MBP-AGO10 (A. thaliana, UniProt Q9XGW1 1-988).
T3 construct: ARGONAUTE 10 (AGO10), A. thaliana; source: E. coli BL21 (DE3), purified (amylose resin); not shown: MBP, N-terminal, kept
T3 sequence (looked up): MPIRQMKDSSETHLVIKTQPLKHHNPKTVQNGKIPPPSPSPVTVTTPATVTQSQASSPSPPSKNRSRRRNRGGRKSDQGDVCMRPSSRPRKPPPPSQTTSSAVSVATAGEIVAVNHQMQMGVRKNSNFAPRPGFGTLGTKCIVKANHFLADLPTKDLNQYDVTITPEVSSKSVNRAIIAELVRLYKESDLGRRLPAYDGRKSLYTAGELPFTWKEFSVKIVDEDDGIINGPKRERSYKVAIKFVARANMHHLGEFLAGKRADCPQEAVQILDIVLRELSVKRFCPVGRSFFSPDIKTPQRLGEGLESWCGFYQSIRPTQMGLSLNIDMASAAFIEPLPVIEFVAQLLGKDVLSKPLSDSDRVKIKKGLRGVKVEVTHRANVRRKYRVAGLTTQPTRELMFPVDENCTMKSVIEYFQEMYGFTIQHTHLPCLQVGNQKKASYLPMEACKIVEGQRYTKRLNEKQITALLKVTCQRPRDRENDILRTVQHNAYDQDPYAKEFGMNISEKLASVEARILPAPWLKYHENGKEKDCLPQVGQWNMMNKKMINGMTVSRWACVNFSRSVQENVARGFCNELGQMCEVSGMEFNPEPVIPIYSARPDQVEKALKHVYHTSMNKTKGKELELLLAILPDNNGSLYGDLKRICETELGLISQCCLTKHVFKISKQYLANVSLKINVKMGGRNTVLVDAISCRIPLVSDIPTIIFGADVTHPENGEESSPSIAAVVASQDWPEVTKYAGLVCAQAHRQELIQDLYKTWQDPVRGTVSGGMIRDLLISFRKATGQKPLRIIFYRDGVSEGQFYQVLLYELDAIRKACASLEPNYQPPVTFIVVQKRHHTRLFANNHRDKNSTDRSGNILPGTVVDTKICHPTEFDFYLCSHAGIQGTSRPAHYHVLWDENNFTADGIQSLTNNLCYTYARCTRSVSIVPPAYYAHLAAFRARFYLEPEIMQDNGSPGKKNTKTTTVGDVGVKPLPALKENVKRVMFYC
Described as above. The note with it: both partners purified.

A further series deals with T4, MBP-AGO10 PIWI (625-988) (A. thaliana, UniProt Q9XGW1 625-988).
T4 construct: AGO10, A. thaliana, residues 625-988 (PIWI); source: E. coli BL21 (DE3), purified (amylose resin); not shown: MBP, N-terminal, kept
T4 sequence (looked up): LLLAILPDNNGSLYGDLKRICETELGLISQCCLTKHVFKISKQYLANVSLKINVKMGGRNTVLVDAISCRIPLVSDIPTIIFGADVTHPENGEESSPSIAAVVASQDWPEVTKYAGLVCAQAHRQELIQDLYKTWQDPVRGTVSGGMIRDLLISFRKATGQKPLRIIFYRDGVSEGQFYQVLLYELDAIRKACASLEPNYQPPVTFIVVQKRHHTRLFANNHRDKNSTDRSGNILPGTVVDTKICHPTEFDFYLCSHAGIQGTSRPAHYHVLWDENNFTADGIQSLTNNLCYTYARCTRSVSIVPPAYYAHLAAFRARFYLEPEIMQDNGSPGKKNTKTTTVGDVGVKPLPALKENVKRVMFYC
The description is as above. The settings on record: both partners purified.

Series [1] deals with the molecule itself. Nature of the series: SEC; purified proteins after SUMO protease cleavage on Superdex75 (1.6 x 60), 20 mM Tris-HCl pH 7.5, 150 mM NaCl.

What is called stoichiometry N is the number of molecules, sites or subunits per partner or assembly.

B1: 6His-SUMO-RICE2 (natural protein, A. thaliana, UniProt Q9FNG3 1-206, looked up)
chain: MASFDGPKFKMTDGSYVQTKTIDVGSSTDISPYLSLIREDSILNGNRAVIFDVYWDVGFPETETKTKTSGWSLSSVKLSTRNLCLFLRLPKPFHDNLKDLYRFFASKFVTFVGVQIEEDLDLLRENHGLVIRNAINVGKLAAEARGTLVLEFLGTRELAHRVLWSDLGQLDSIEAKWEKAGPEEQLEAAAIEGWLIVNVWDQLSDE
notes: RICE2 (At5g06450; AtDECP), A. thaliana; open reading frame in pET28a-SUMO-DC; also called AtDECP; source: E. coli BL21 (DE3), purified (Ni-NTA); not shown: His6, N-terminal, kept; SUMO, N-terminal, kept
In the case of B1, the binding result with MBP-AGO10 NC (127-336), with MBP-AGO1, in the series with MBP-AGO10 and with MBP-AGO10 PIWI (625-988) was “binds” each time.

B2: RICE2, purified recombinant (SUMO tag cleaved) (enzyme, A. thaliana, UniProt Q9FNG3 1-206, looked up)
chain: MASFDGPKFKMTDGSYVQTKTIDVGSSTDISPYLSLIREDSILNGNRAVIFDVYWDVGFPETETKTKTSGWSLSSVKLSTRNLCLFLRLPKPFHDNLKDLYRFFASKFVTFVGVQIEEDLDLLRENHGLVIRNAINVGKLAAEARGTLVLEFLGTRELAHRVLWSDLGQLDSIEAKWEKAGPEEQLEAAAIEGWLIVNVWDQLSDE
notes: RICE2 (At5g06450; AtDECP), A. thaliana; full-length cDNA in pET28a-SUMO (BamHI/SacI); also called AtDECP; source: E. coli BL21 (DE3), purified (Ni-NTA, SUMO protease cleavage, SEC); not shown: His6, N-terminal, cleaved; SUMO, N-terminal, cleaved
With B2, the “stoichiometry N” value in series [1] is ~6.

B3: 6His-SUMO-RICE1 (natural protein, A. thaliana, UniProt Q9SF21 1-200, looked up)
chain: MASFDGQGFMMVDNSWVQTKAIDVESTTDISPYLSKILEDSVWNGNRSIVFDVYWDVKSVSTKSEWRLCSVKFSTKNFCLFLRLPNPFCDNLKDLYRFFASKFVTFVGVQIQEDLALLKENHGIVIRSSLEIGKLAAKARGTPIVEFLGTRELAHKILWYDMSRLDSIQSKWDEASSNDRLEAAAIEGWLIFNVYDQLQQ
notes: RICE1 (At3g11770), A. thaliana; open reading frame in pET28a-SUMO-DC; source: E. coli BL21 (DE3), purified (Ni-NTA); not shown: His6, N-terminal, kept; SUMO, N-terminal, kept
As to B3, the binding result with MBP-AGO10 NC (127-336), with MBP-AGO1, in the series with MBP-AGO10 and with MBP-AGO10 PIWI (625-988) was “binds” each time.

B4: RICE1 Y54S, purified recombinant (enzyme, A. thaliana, UniProt Q9SF21 1-200, looked up)
chain: MASFDGQGFMMVDNSWVQTKAIDVESTTDISPYLSKILEDSVWNGNRSIVFDVSWDVKSVSTKSEWRLCSVKFSTKNFCLFLRLPNPFCDNLKDLYRFFASKFVTFVGVQIQEDLALLKENHGIVIRSSLEIGKLAAKARGTPIVEFLGTRELAHKILWYDMSRLDSIQSKWDEASSNDRLEAAAIEGWLIFNVYDQLQQ
notes: RICE1 (At3g11770), A. thaliana; point mutant made on pET28a-SUMO-RICE1; source: E. coli BL21 (DE3), purified (Ni-NTA, SUMO protease cleavage, SEC); not shown: His6, N-terminal, cleaved; SUMO, N-terminal, cleaved
Take B4: the binding result in series [1] is recorded as “binds”.

B5: RICE1 E187A, purified recombinant (enzyme, A. thaliana, UniProt Q9SF21 1-200, looked up)
chain: MASFDGQGFMMVDNSWVQTKAIDVESTTDISPYLSKILEDSVWNGNRSIVFDVYWDVKSVSTKSEWRLCSVKFSTKNFCLFLRLPNPFCDNLKDLYRFFASKFVTFVGVQIQEDLALLKENHGIVIRSSLEIGKLAAKARGTPIVEFLGTRELAHKILWYDMSRLDSIQSKWDEASSNDRLEAAAIAGWLIFNVYDQLQQ
notes: as for B4
As for B5, the binding result in series [1] is given as “binds”.

B6: RICE1 D52A, purified recombinant (enzyme, A. thaliana, UniProt Q9SF21 1-200, looked up)
chain: MASFDGQGFMMVDNSWVQTKAIDVESTTDISPYLSKILEDSVWNGNRSIVFAVYWDVKSVSTKSEWRLCSVKFSTKNFCLFLRLPNPFCDNLKDLYRFFASKFVTFVGVQIQEDLALLKENHGIVIRSSLEIGKLAAKARGTPIVEFLGTRELAHKILWYDMSRLDSIQSKWDEASSNDRLEAAAIEGWLIFNVYDQLQQ
notes: as for B4
As to B6, the binding result in series [1] is reported as “binds”.

These data come from publication PMC5451212, “RISC-interacting clearing 3’- 5’ exoribonucleases (RICEs) degrade uridylated cleavage fragments to maintain functional RISC in Arabidopsis thaliana” (eLife, 2017).
